Columns and labels:
Format in all cases: cell-based
Nalm6 cells = test: JNG assay, co-culture with Nalm6 cells
Summary of the method: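 GFP expression induced through the NFAT pathway was monitored by FACS once SAR-bearing Jurkat reporters had been cultured with target cells at an approximate 1:2 ratio for 4 to 18 hours; parental reporter cells served as the baseline.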

RAJI cells = test: JNG assay, co-culture with RAJI cells; details: for NFAT-GFP ASSAY: Raji: JNG cells expressing construct, co-culture with Raji
Summary of the method: (§1)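 Jurkat NFAT-GFP (JNG) cells stably transduced with SARs by lentivirus, with drug selection where the construct carried a resistance gene, then co-cultured with target cells at E:T ~1:2 for ~4–18 h. % GFP-positive cells measured by FACS against parental JNG; +/- to 5+ correspond to ~5–50% GFP-positive.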

SKOV-3 cells = test: JNG assay, co-culture with SKOV-3 cells; details: for NFAT-GFP ASSAY: SKOV-3: co-culture with SKOV-3
Protocol: Cellular supernatant is collected and assayed for the induction of cytokines (e.g., IL2).
JNG (Jurkat cells expressing EGFP under an NFAT promoter) were infected with lentiviral vectors encoding different single chain and multi-chain SARs by spinfection in the presence of 8 µg/ml of Polybrene® (Sigma, Catalog no. H9268). The Jurkat-NFAT-GFP cells are engineered in such a way that the IL-2 promoter, which carries NFAT binding sites, is cloned upstream of the GFP gene. These cells have been used to study signaling via TCR and CAR. The different SARs were stably expressed in Jurkat NFAT-GFP cells by lentiviral mediated gene transfer, followed by selection with puromycin or blasticidin. No drug selection was used in case the construct lacked an antibiotic resistance gene. The SAR-expressing Jurkat-NFAT-GFP cells were cocultured with the target cells at E:T ratio of approximately 1:2 for approximately 4 hours to 18 hours. When the interaction between SIRs and their target antigen results in activation of the NFAT pathway, GFP expression is induced. […] GFP expression was monitored by FACS analysis. The Jurkat-NFAT-GFP (parental) cells were used as control. The structure of different constructs can be determined based on their names. […] The sequence of the other constructs in the table can be similarly determined from their names and by referring to the different Tables of this disclosure that provide the names and SEQ ID NO of the different modules. Alternatively, the composition and modular architecture of the different SAR constructs can be determined from their sequences by bioinformatics tools, including using nucleic acid and amino acids homology searches. A SAR is considered positive in the assay in case the SAR expressing Jurkat-NFAT-GFP cells show greater % GFP positive cells when cultured with the target cell line as compared to parental Jurkat-NFAT-GFP cells. […] In general, the number +/-, +, 2+, 3+, 4+, 5+ refer to approximately 5%, 10%, 20%, 30%, 40% and 50% GFP positive cells. The % of GFP induction in the above assay is dependent not only the relative strength of the SAR but also, among other factors, on the relative level of expression of the SAR in the JNG cells and the relative level of expression of the target antigen in the target cell line. To control for the difference in gene transduction efficiency of the different SAR constructs, the experiment was conducted with JNG cells transduced with SAR constructs co-expressing a drug resistance gene (e.g., puromycin or PAC) followed by drug selection to generate a stable population of SAR-expressing cells. It is to be noted that the drug resistance gene (e.g., PAC) in the SAR constructs is optional and in vivo studies were conducted with SAR constructs lacking the PAC gene.

RAJI-CD19-KO cells = test: JNG assay, co-culture with RAJI-CD19-KO cells; details: co-culture with Raji-CD19-KO
Summary of the method: as §1

Molecule	GFP induction / activity (Nalm6 cells; co-culture with Nalm6 cells)	GFP induction / activity (RAJI cells; co-culture with RAJI cells)	GFP induction / activity (SKOV-3 cells; co-culture with SKOV-3 cells)	NFAT-GFP ASSAY: Nalm6 (Nalm6 cells; co-culture with Nalm6)	NFAT-GFP ASSAY: Raji-CD19-KO (RAJI-CD19-KO cells)	NFAT-GFP ASSAY: Raji (RAJI cells)	NFAT-GFP ASSAY: SKOV-3 (SKOV-3 cells)
SEQ ID NO: 22177: trispecific SAR construct targeting CD19 and CD20 and coexpressing the ligand binding domain of NKG2D (protein) MALPVTALLLPLALLLHAARPLFNQEVQIPLTESYCGPCPKNWICYKNNCYQFFDESKNWYESQASCMSQNASLLKVYSKEDQDLLKLVKSYHWMGLVHIPTNGSWQWEDGSILSPNLLTIIEMQKGDCALYASSFKGYIENCSTPNTYICMQRTVGGGGSGGGGSGGGGSDLFNQEVQIPLTESYCGPCPKNWICYKNNCYQFFDESKNWYESQASCMSQNASLLKVYSKEDQDLLKLVKSYHWMGLVHIPTNGSWQWEDGSILSPNLLTIIEMQKGDCALYASSFKGYIENCSTPNTYICMQRTVGTGGGGSGGGGSGGGGSEFDIQMTQSPSSLSASVGDRVTITCKASDHINNWLAWYQQKPGQAPKLLIYGATTLETGVPSRFSGSGSGTDYTLTISSLQPEDFATYYCQQSWNTPWTFGQGTKLEIKRLEDLKNVFPPEVAVFEPSKAEIAHTQKATLVCLATGFYPDHVELSWWVNGKEVHSGVCTDPQPLKEQPALNDSRYCLSSRLRVSATFWQNPRNHFRCQVQFYGLSENDEWTQDRAKPVTQIVSAEAWGRADCGITSASYHQGVLSATILYEILLGKATLYAVLVSALVLMAMVKRKDSRGRAKRSGSGATNFSLLKQAGDVEENPGPTSATMDWIWRILFLVGAATGAHSGPQVQLQESGGGLAQAGGSLRLSCAASGRTFSMGWFRQAPGKEREFVAAITYSGGSPYYASSVRGRFTISRDNAKNTVYLQMNSLKPEDTAVYYCAANPTYGSDWNAENWGQGTQVTVSSGSGGGGSGGGGSGGGGSFEQVQLQQPGAELVKPGASVKMSCKASGYAFSSYWINWMKQKPGQGLEWIGQIYPGDGDTNYNGKFKGRATLTADTSSSTAYMQLSSLTSEDSAVYFCARSITTVVGCAMDYWGQGTSVTVSSTRIQNPDPAVYQLRDSKSSDKSVCLFTDFDSQTNVSQSKDSDVYITDKCVLDMRSMDFKSNSAVAWSNKSDFACANAFNNSIIPEDTFFPSSDVPCDVKLVEKSFETDTNLNFQNLSVIGFRILLLKVAGFNLLMTLRLWSSRAKRSGSGVKQTLNFDLLKLAGDVESNPGPSRGHMTEYKPTVRLATRDDVPRAVRTLAAAFADYPATRHTVDPDRHIERVTELQELFLTRVGLDIGKVWVADDGAAVAVWTTPESVEAGAVFAEIGPRMAELSGSRLAAQQQMEGLLAPHRPKEPAWFLATVGVSPDHQGKGLGSAVVLPGVEAAERAGVPAFLETSAPRNLPFYERLGFTVTADVEVPEGPRTWCMTRKPGA	robust activity	robust activity	robust activity	–	–	–	–
22166 (protein) MALPVTALLLPLALLLHAARPEVQLQESGGGLVQPGGSLRLSCAASGRTFSSLFMGWFRQAPGKERELVAAISRYSLYTYYADSVKGRFTISADNAKNAVYLQMNSLKPEDTAVYYCASKLEYTSNDYDSWGQGTQVTVSSGTGGGGSGGGGSGGGGSEFDIQMTQSPSSLSASVGDRVTITCKASDHINNWLAWYQQKPGQAPKLLIYGATTLETGVPSRFSGSGSGTDYTLTISSLQPEDFATYYCQQSWNTPWTFGQGTKLEIKRLEIQNPDPAVYQLRDSKSSDKSVCLFTDFDSQTNVSQSKDSDVYITDKCVLDMRSMDFKSNSAVAWSNKSDFACANAFNNSIIPEDTFFPSSDVPCDVKLVEKSFETDTNLNFQNLSVIGFRILLLKVAGFNLLMTLRLWSSRAKRSGSGVKQTLNFDLLKLAGDVESNPGPTSATMDWIWRILFLVGAATGAHSGPQVQLQESGGGLAQAGGSLRLSCAASGRTFSMGWFRQAPGKEREFVAAITYSGGSPYYASSVRGRFTISRDNAKNTVYLQMNSLKPEDTAVYYCAANPTYGSDWNAENWGQGTQVTVSSGSGGGGSGGGGSGGGGSFEQVQLQQPGAELVKPGASVKMSCKASGYAFSSYWINWMKQKPGQGLEWIGQIYPGDGDTNYNGKFKGRATLTADTSSSTAYMQLSSLTSEDSAVYFCARSITTVVGCAMDYWGQGTSVTVSSTREDLKNVFPPEVAVFEPSKAEIAHTQKATLVCLATGFYPDHVELSWWVNGKEVHSGVCTDPQPLKEQPALNDSRYCLSSRLRVSATFWQNPRNHFRCQVQFYGLSENDEWTQDRAKPVTQIVSAEAWGRADCGITSASYHQGVLSATILYEILLGKATLYAVLVSALVLMAMVKRKDSRGRAKRSGSGATNFSLLKQAGDVEENPGPSRGHMTEYKPTVRLATRDDVPRAVRTLAAAFADYPATRHTVDPDRHIERVTELQELFLTRVGLDIGKVWVADDGAAVAVWTTPESVEAGAVFAEIGPRMAELSGSRLAAQQQMEGLLAPHRPKEPAWFLATVGVSPDHQGKGLGSAVVLPGVEAAERAGVPAFLETSAPRNLPFYERLGFTVTADVEVPEGPRTWCMTRKPGA	–	–	–	3+ (refer to approximately 5%, 10%, 20%, 30%, 40% and 50% GFP positive cells)	2+ (refer to approximately 5%, 10%, 20%, 30%, 40% and 50% GFP positive cells)	2+ (refer to approximately 5%, 10%, 20%, 30%, 40% and 50% GFP positive cells)	2+ (refer to approximately 5%, 10%, 20%, 30%, 40% and 50% GFP positive cells)
22197 (protein) MALPVTALLLPLALLLHAARPDIQMTQSPSSLSASVGDRVTITCKASDHINNWLAWYQQKPGQAPKLLIYGATTLETGVPSRFSGSGSGTDYTLTISSLQPEDFATYYCQQSWNTPWTFGQGTKLEIKRLEDLKNVFPPEVAVFEPSEAEISHTQKATLVCLATGFYPDHVELSWWVNGKEVHSGVCTDPQPLKEQPALNDSRYCLSSRLRVSATFWQNPRNHFRCQVQFYGLSENDEWTQDRAKPVTQIVSAEAWGRADCGFTSESYQQGVLSATILYEILLGKATLYAVLVSALVLMAMVKRKDSRGRAKRSGSGATNFSLLKQAGDVEENPGPTSATMDWIWRILFLVGAATGAHSGPGSDLGIKLLFAAAKGQDDEVRILLAAGADVNAKDFEGYTPLHVAAYDGHLEIVEVLLKAGADVNAKDSQGRTPLHEAAYSGHLEIVEVLLKAGADVNAQDDAGETPADLAAAWGHEDIAEVLQKGSGGGGSGGGGSGGGGSFEQVQLQQPGAELVKPGASVKMSCKASGYAFSSYWINWMKQKPGQGLEWIGQIYPGDGDTNYNGKFKGRATLTADTSSSTAYMQLSSLTSEDSAVYFCARSITTVVGCAMDYWGQGTSVTVSSTRIQNPDPAVYQLRDSKSSDKSVCLFTDFDSQTNVSQSKDSDVYITDKCVLDMRSMDFKSNSAVAWSNKSDFACANAFNNSIIPEDTFFPSPESSCDVKLVEKSFETDTNLNFQNLSVIGFRILLLKVAGFNLLMTLRLWSSRAKRSGSGVKQTLNFDLLKLAGDVESNPGPSRGHMTEYKPTVRLATRDDVPRAVRTLAAAFADYPATRHTVDPDRHIERVTELQELFLTRVGLDIGKVWVADDGAAVAVWTTPESVEAGAVFAEIGPRMAELSGSRLAAQQQMEGLLAPHRPKEPAWFLATVGVSPDHQGKGLGSAVVLPGVEAAERAGVPAFLETSAPRNLPFYERLGFTVTADVEVPEGPRTWCMTRKPGA	–	–	–	–	–	2+ (refer to approximately 5%, 10%, 20%, 30%, 40% and 50% GFP positive cells)	5+ (refer to approximately 5%, 10%, 20%, 30%, 40% and 50% GFP positive cells)

From patent publication US20230212319A1, “NOVEL ANTIGEN BINDING DOMAINS AND SYNTHETIC ANTIGEN RECEPTORS INCORPORATING THE SAME” (University of Southern California, priority 2020, published 2023)
